Test results reported in ChEMBL document CHEMBL1250451, “Mechanistic insights into a Ca2+-dependent family of alpha-mannosidases in a human gut symbiont” (Nat Chem Biol, 2010).

Tests used:
Format in all cases: protein assay
[1] = substrate: O=[N+]([O-])c1ccc(O[C@H]2O[C@H](CO)[C@@H](O)[C@H](O)[C@@H]2O)cc1; test: (§1) Activity of Bacteroides thetaiotaomicron GH92 alpha-mannosidase 3990 D644A mutant assessed as as mannose release after 16 hrs by HPLC relative to wild type enzyme
[2] = substrate: OC[C@H]1O[C@H](O[C@H]2[C@@H](O)[C@H](O)[C@@H](CO)O[C@@H]2O)[C@@H](O)[C@@H](O)[C@@H]1O; test: as §1
[3] = substrate: O=[N+]([O-])c1ccc(O[C@H]2O[C@H](CO)[C@@H](O)[C@H](O)[C@@H]2O)c([N+](=O)[O-])c1; test: (§2) Ratio of Kcat to Km for Bacteroides thetaiotaomicron GH92 alpha-mannosidase 3990 D644A mutant assessed as as mannose release after 16 hrs by HPLC relative to wild type enzyme
[4] = substrate: O=[N+]([O-])c1ccc(O[C@H]2O[C@H](CO)[C@@H](O)[C@H](O)[C@@H]2O)cc1; test: as §2
[5] = substrate: OC[C@H]1O[C@H](O[C@H]2[C@@H](O)[C@H](O)[C@@H](CO)O[C@@H]2O)[C@@H](O)[C@@H](O)[C@@H]1O; test: as §2
[6] = substrate: O=[N+]([O-])c1ccc(O[C@H]2O[C@H](CO)[C@@H](O)[C@H](O)[C@@H]2O)cc1; test: (§3) Activity of Bacteroides thetaiotaomicron GH92 alpha-mannosidase 3990 E643A mutant assessed as as mannose release after 16 hrs by HPLC relative to wild type enzyme
[7] = substrate: OC[C@H]1O[C@H](O[C@H]2[C@@H](O)[C@H](O)[C@@H](CO)O[C@@H]2O)[C@@H](O)[C@@H](O)[C@@H]1O; test: as §3
[8] = substrate: O=[N+]([O-])c1ccc(O[C@H]2O[C@H](CO)[C@@H](O)[C@H](O)[C@@H]2O)c([N+](=O)[O-])c1; test: (§4) Ratio of Kcat to Km for Bacteroides thetaiotaomicron GH92 alpha-mannosidase 3990 E643A mutant assessed as as mannose release after 16 hrs by HPLC relative to wild type enzyme
[9] = substrate: O=[N+]([O-])c1ccc(O[C@H]2O[C@H](CO)[C@@H](O)[C@H](O)[C@@H]2O)cc1; test: as §4
[10] = substrate: OC[C@H]1O[C@H](O[C@H]2[C@@H](O)[C@H](O)[C@@H](CO)O[C@@H]2O)[C@@H](O)[C@@H](O)[C@@H]1O; test: as §4
[11] = substrate: O=[N+]([O-])c1ccc(O[C@H]2O[C@H](CO)[C@@H](O)[C@H](O)[C@@H]2O)cc1; test: (§5) Activity of Bacteroides thetaiotaomicron GH92 alpha-mannosidase 3990 E533Q mutant assessed as as mannose release after 16 hrs by HPLC relative to wild type enzyme
[12] = substrate: OC[C@H]1O[C@H](O[C@H]2[C@@H](O)[C@H](O)[C@@H](CO)O[C@@H]2O)[C@@H](O)[C@@H](O)[C@@H]1O; test: as §5
[13] = substrate: O=[N+]([O-])c1ccc(O[C@H]2O[C@H](CO)[C@@H](O)[C@H](O)[C@@H]2O)c([N+](=O)[O-])c1; test: (§6) Ratio of Kcat to Km for Bacteroides thetaiotaomicron GH92 alpha-mannosidase 3990 E533Q mutant assessed as as mannose release after 16 hrs by HPLC relative to wild type enzyme
[14] = substrate: O=[N+]([O-])c1ccc(O[C@H]2O[C@H](CO)[C@@H](O)[C@H](O)[C@@H]2O)cc1; test: as §6
[15] = substrate: OC[C@H]1O[C@H](O[C@H]2[C@@H](O)[C@H](O)[C@@H](CO)O[C@@H]2O)[C@@H](O)[C@@H](O)[C@@H]1O; test: as §6

B1: Alpha-1,2-mannosidase (BT_3990) (Bacteroides thetaiotaomicron), Q8A0N1 D644A (protein)
chain: MKRLLLIACILNCTLLSQAKDWTQYVNPLMGSQSTFELSTGNTYPAIARPWGMNFWTPQTGKMGDGWQYTYTANKIRGFKQTHQPSPWINDYGQFSIMPIVGQPVFDEEKRASWFAHKGEVATPYYYKVYLAEHDIVTEMTPTERAVLFRFTFPENDHSYVVVDAFDKGSYIKIIPEENKIIGYTTRNSGGVPENFKNYFIIEFDKPFTYKATVENGNLQENVAEQTTDHAGAIIGFKTRKGEQVNARIASSFISFEQAAANMNELGKDNIEQLAQKGKDAWNQVLGKIEVEGGNLDQYRTFYSCLYRSLLFPRKFYELDANGQPIHYSPYNGQVLPGYMFTDTGFWDTFRCLFPLLNLMYPSVNKEMQEGLINTYLESGFFPEWASPGHRGCMVGNNSASILVDAYMKGVKVDDIKTLYEGLIHGTENVHPEVSSTGRLGYEYYNKLGYVPYDVKINENAARTLEYAYDDWCIYRLAKELKRPKKEISLFAKRAMNYKNLFDKESKLMRGRNEDGTFQSPFSPLKWGDAFTEGNSWHYTWSVFHDPQGLIDLMGGKEMFVTMMDSVFAVPPIFDDSYYGQVIHEIREMTVMNMGNYAHGNQPIQHMIYLYDYAGQPWKAQYWLRQVMDRMYTPGPDGYCGDEANGQTSAWYVFSALGFYPVCPGTDEYVMGTPLFKKATLHFENGNSLVIDAPNNSTENFYIDSMSFNGADHTKNYLRHEDLFKGGTIKVDMSNRPNLNRGTKEEDMPYSFSKE
Km [1]: Not Active | kcat [1]: Not Active | Km [2]: 620 µM | kcat [2]: 0.047 min⁻¹ | kcat/Km [3]: 0.001 mM⁻¹ min⁻¹ | kcat/Km [4]: Not Active | kcat/Km [5]: 0.076 mM⁻¹ min⁻¹

B2: Alpha-1,2-mannosidase (BT_3990) (Bacteroides thetaiotaomicron), Q8A0N1 E643A (protein)
chain: MKRLLLIACILNCTLLSQAKDWTQYVNPLMGSQSTFELSTGNTYPAIARPWGMNFWTPQTGKMGDGWQYTYTANKIRGFKQTHQPSPWINDYGQFSIMPIVGQPVFDEEKRASWFAHKGEVATPYYYKVYLAEHDIVTEMTPTERAVLFRFTFPENDHSYVVVDAFDKGSYIKIIPEENKIIGYTTRNSGGVPENFKNYFIIEFDKPFTYKATVENGNLQENVAEQTTDHAGAIIGFKTRKGEQVNARIASSFISFEQAAANMNELGKDNIEQLAQKGKDAWNQVLGKIEVEGGNLDQYRTFYSCLYRSLLFPRKFYELDANGQPIHYSPYNGQVLPGYMFTDTGFWDTFRCLFPLLNLMYPSVNKEMQEGLINTYLESGFFPEWASPGHRGCMVGNNSASILVDAYMKGVKVDDIKTLYEGLIHGTENVHPEVSSTGRLGYEYYNKLGYVPYDVKINENAARTLEYAYDDWCIYRLAKELKRPKKEISLFAKRAMNYKNLFDKESKLMRGRNEDGTFQSPFSPLKWGDAFTEGNSWHYTWSVFHDPQGLIDLMGGKEMFVTMMDSVFAVPPIFDDSYYGQVIHEIREMTVMNMGNYAHGNQPIQHMIYLYDYAGQPWKAQYWLRQVMDRMYTPGPDGYCGDADNGQTSAWYVFSALGFYPVCPGTDEYVMGTPLFKKATLHFENGNSLVIDAPNNSTENFYIDSMSFNGADHTKNYLRHEDLFKGGTIKVDMSNRPNLNRGTKEEDMPYSFSKE
Km [6]: Not Active | kcat [6]: Not Active | Km [7]: Not Active | kcat [7]: Not Active | kcat/Km [8]: 0.015 mM⁻¹ min⁻¹ | kcat/Km [9]: Not Active | kcat/Km [10]: 0.79 mM⁻¹ min⁻¹

B3: Alpha-1,2-mannosidase (BT_3990) (Bacteroides thetaiotaomicron), Q8A0N1 E533Q (protein)
chain: MKRLLLIACILNCTLLSQAKDWTQYVNPLMGSQSTFELSTGNTYPAIARPWGMNFWTPQTGKMGDGWQYTYTANKIRGFKQTHQPSPWINDYGQFSIMPIVGQPVFDEEKRASWFAHKGEVATPYYYKVYLAEHDIVTEMTPTERAVLFRFTFPENDHSYVVVDAFDKGSYIKIIPEENKIIGYTTRNSGGVPENFKNYFIIEFDKPFTYKATVENGNLQENVAEQTTDHAGAIIGFKTRKGEQVNARIASSFISFEQAAANMNELGKDNIEQLAQKGKDAWNQVLGKIEVEGGNLDQYRTFYSCLYRSLLFPRKFYELDANGQPIHYSPYNGQVLPGYMFTDTGFWDTFRCLFPLLNLMYPSVNKEMQEGLINTYLESGFFPEWASPGHRGCMVGNNSASILVDAYMKGVKVDDIKTLYEGLIHGTENVHPEVSSTGRLGYEYYNKLGYVPYDVKINENAARTLEYAYDDWCIYRLAKELKRPKKEISLFAKRAMNYKNLFDKESKLMRGRNEDGTFQSPFSPLKWGDAFTQGNSWHYTWSVFHDPQGLIDLMGGKEMFVTMMDSVFAVPPIFDDSYYGQVIHEIREMTVMNMGNYAHGNQPIQHMIYLYDYAGQPWKAQYWLRQVMDRMYTPGPDGYCGDEDNGQTSAWYVFSALGFYPVCPGTDEYVMGTPLFKKATLHFENGNSLVIDAPNNSTENFYIDSMSFNGADHTKNYLRHEDLFKGGTIKVDMSNRPNLNRGTKEEDMPYSFSKE
Km [11]: 10 mM | kcat [11]: 8.8 min⁻¹ | Km [12]: 960 µM | kcat [12]: 0.014 min⁻¹ | kcat/Km [13]: 620 mM⁻¹ min⁻¹ | kcat/Km [14]: 0.86 mM⁻¹ min⁻¹ | kcat/Km [15]: 0.015 mM⁻¹ min⁻¹
